According to patent US8993717B2, “Gadd45beta targeting agents” (Imperial Innovations Limited, priority 2009, dated 2015):
Square brackets hold non-standard residues; d marks the D form. Primed or numbered codes have the meaning given here. Peptide text beside a SMILES is read from it. * marks the point of attachment. Benzoyl(3-OH,4-OMe) = COc1ccc(C(=O)*)cc1O; Fmoc = O=C(OCC1c2ccccc2-c2ccccc21)*; Myristoyl = CCCCCCCCCCCCCC(=O)*; ClZ = O=C(OCc1ccccc1Cl)*; OMe′ = Asp methyl ester; Cbz = O=C(OCc1ccccc1)*; βAla = NCCC(=O)O

What follows are compounds tested against T1, Gadd45β/MKK7 interaction (Homo sapiens, UniProt O14733) (assay: ELISA competition assay of biotin-hGadd45β binding to coated GST-MKK7). Details: Table I, initial Elisa screening; coated MKK7 42 nM, biotin-hGadd45β 21 nM; competitor 21 nM, sub-libraries 42 nM.
T1 construct: The GST-fused full-length kinase was coated for 16 h at 4° C., at a concentration of 42 nM; made in house
T1 sequence (O14733 1-419): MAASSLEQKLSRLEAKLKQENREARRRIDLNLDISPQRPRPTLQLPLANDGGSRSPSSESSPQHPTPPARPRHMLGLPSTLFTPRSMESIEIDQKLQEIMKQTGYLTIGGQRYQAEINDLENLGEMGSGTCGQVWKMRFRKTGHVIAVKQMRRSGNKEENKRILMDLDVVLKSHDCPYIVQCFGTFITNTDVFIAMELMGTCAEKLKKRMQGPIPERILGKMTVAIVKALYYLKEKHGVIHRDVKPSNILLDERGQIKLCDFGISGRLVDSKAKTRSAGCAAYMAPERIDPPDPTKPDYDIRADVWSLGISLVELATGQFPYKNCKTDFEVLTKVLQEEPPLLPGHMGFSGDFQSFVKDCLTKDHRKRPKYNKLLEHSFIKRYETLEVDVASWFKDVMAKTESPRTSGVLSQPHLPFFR
Description: To evaluate the inhibitory properties of peptides, ELISA-based assays were performed. In these assays, a fusion protein of glutathione S-transferase (GST) and mitogen-activated protein kinase kinase 7 (MKK7) was coated onto wells of a 96-well plate, while biotinylated-hGadd45β was used in solution. hGadd45β was biotinylated using an EZ Link NHS-LC-biotin kit (Pierce, Rockford, Ill.), according to Tornatore et al. (Tornatore L., et al. (2008). J Mol Biol; 378:97-111).
Firstly, the association between Gadd45β and MKK7 was investigated by ELISA assays as also reported in Tornatore et al. (Tornatore L., et al. (2008). J Mol Biol; 378:97-111). The GST-fused full-length kinase was coated for 16 h at 4° C., at a concentration of 42 nM in buffer A (25 mM Tris pH 7.5, 150 mM NaCl, 1 mM DTT and 1 mM EDTA) into wells of a 96-well microliter plate. Some wells were filled with buffer alone and were used as blanks. After incubation for 16 h at 4° C., the solutions were removed and the wells were filled with 350 μL of a 1% (w/v) solution of NFDM (Non Fat Dry Milk) in PBS (phosphate buffered saline). The plate was incubated for 1 h at 37° C. in the dark. After washing with buffer T-PBS (PBS with 0.004% (v/v) Tween detergent), the wells were filled with 100 μL of biotinylated-hGadd45β at concentrations ranging from 8.4 nM to 168 nM. Each data point was performed in triplicate. Following incubation for 1 hr in the dark at 37° C. the solutions were removed and the wells were again washed with T-PBS. Then 100 μL of a 1:10,000 dilution of horseradish peroxidase-conjugated streptavidin dissolved in buffer was added to each well and the plate incubated for 1 hr at 37° C. in the dark. After removal of the enzyme solution and washing, 100 μL of the chromogenic substrate o-phenylendiamine (0.4 mg/mL in 50 mM sodium phosphate-citrate buffer, containing 0.4 mg/mL of urea in hydrogen peroxide) was added and the colour was allowed to develop in the dark for 5 min. The reaction was stopped by adding 50 μL of 2.5 M H2SO4. The absorbance at 490 nm was measured in all wells and the values were averaged after subtracting the corresponding blanks. Bound protein was then detected as described above. The molar concentration of biotinylated-hGadd45β at which the half-maximal ELISA signal is detected corresponds to the dissociation constant (KD) (Friguet B, Chaffotte A F, Djavadi-Ohaniance L, Goldberg M E. J Immunol Methods. 1985 Mar. 18; 77 (2):305-19). Binding competition assays were performed by coating GST-MKK7 at 42 nM as described, a concentration of biotinylated-hGadd45β of 21 nM (pre-saturation conditions 1:0.5 mol/mol ratio) and, in a first test, using competitors at 21 nM. The binding of biotinylated hGadd45β to GST-MKK7 was analyzed in the presence of increasing amounts of competitor peptide (concentrations ranging from 0.01 nM to 100 nM), and the values obtained with the competitor were expressed as the percentage of the binding detected in the absence of competitor. […] According to the convention adopted in the table “L-Xaa” and “D-Xaa” refer to the L and D forms of amino acid Xaa.
A simplified combinatorial peptide library (Marasco et al. 2008, Curr. Protein Pept. Sci. 9:447-67) was screened for antagonists of the Gadd45β/MKK7 interaction. This library contained a total of 12^4=20,736 different tetrapeptides formed by combinations of the following amino acid residues Gln (Q), Ser (S), Arg (R), Ala (A), Tyr (Y), Pro (P), Met (M), Cys (C), Phe (F), Leu (L), His (H), Asp (D), and was iteratively deconvoluted in four steps by ELISA competition assays using at each step coated MKK7 (42 nM), soluble-biotin-hGadd45β (21 nM) and each of the 12 sub-libraries (42 nM).

Compound | % Inhibition of Gadd45β-MKK7 binding
Fmoc(βAla)2-YDHH-NH2 ({Fmoc-βAla-βAla}-YDHH-NH2; SMILES NC(=O)[C@H](Cc1c[nH]cn1)NC(=O)[C@H](Cc1c[nH]cn1)NC(=O)[C@H](CC(=O)O)NC(=O)[C@H](Cc1ccc(O)cc1)NC(=O)CCNC(=O)CCNC(=O)OCC1c2ccccc2-c2ccccc21) | 40%
Fmoc(βAla)2-YDHP-NH2 ({Fmoc-βAla-βAla}-YDHP-NH2; SMILES NC(=O)[C@@H]1CCCN1C(=O)[C@H](Cc1c[nH]cn1)NC(=O)[C@H](CC(=O)O)NC(=O)[C@H](Cc1ccc(O)cc1)NC(=O)CCNC(=O)CCNC(=O)OCC1c2ccccc2-c2ccccc21) | 16%
Fmoc(βAla)2-YDHY-NH2 ({Fmoc-βAla-βAla}-YDHY-NH2; SMILES NC(=O)[C@H](Cc1ccc(O)cc1)NC(=O)[C@H](Cc1c[nH]cn1)NC(=O)[C@H](CC(=O)O)NC(=O)[C@H](Cc1ccc(O)cc1)NC(=O)CCNC(=O)CCNC(=O)OCC1c2ccccc2-c2ccccc21) | 63%
Fmoc(βAla)2-YDHM-NH2 ({Fmoc-βAla-βAla}-YDHM-NH2; SMILES CSCC[C@H](NC(=O)[C@H](Cc1c[nH]cn1)NC(=O)[C@H](CC(=O)O)NC(=O)[C@H](Cc1ccc(O)cc1)NC(=O)CCNC(=O)CCNC(=O)OCC1c2ccccc2-c2ccccc21)C(N)=O) | 14%
Fmoc(βAla)2-YDHD-NH2 ({Fmoc-βAla-βAla}-YDHD-NH2; SMILES NC(=O)[C@H](CC(=O)O)NC(=O)[C@H](Cc1c[nH]cn1)NC(=O)[C@H](CC(=O)O)NC(=O)[C@H](Cc1ccc(O)cc1)NC(=O)CCNC(=O)CCNC(=O)OCC1c2ccccc2-c2ccccc21) | 0%
Fmoc(βAla)2-YDHF-NH2 ({Fmoc-βAla-βAla}-YDHF-NH2) | 99%

Same assay, conditions: Table II, modified pure peptides

Compound | % Inhibition of Gadd45β-MKK7 binding
Ac-WEHF-NH2 | 36%
Ac-YDHF-NH2 | 94%
Ac-YDKW-NH2 | 23%
Ac-WEKF-NH2 | 65%
Ac-YDKF-NH2 | 35%
Ac-WDRW-NH2 | 93%
Ac-WDRF-NH2 | 46%
Ac-WERW-NH2 | 69%
Ac-WEHW-NH2 | 75%

Other lines, results leading:

% Inhibition of Gadd45β-MKK7 binding | Compound
99% | Ac-YDHQ-NH2
59% | Ac-YERW-NH2
52% | Ac-YEHF-NH2
45% | Ac-YDRF-NH2
28% | Ac-WDHF-NH2
64% | Ac-YEHW-NH2
29% | Ac-WERF-NH2
64% | Ac-YEKF-NH2

Same assay, conditions: Table III, modified peptides

Compound | % Inhibition of Gadd45β-MKK7 binding
Z-YD(OMe)HQ-NH2 (Cbz-YD(OMe′)HQ-NH2) | 3%
3-OH—4MeO-Benzoid acid-YERF-NH2 ({Benzoyl(3-OH,4-OMe)}-YERF-NH2) | 86%
3-OH—4MeO-Benzoid acid-YDHQ-NH2 ({Benzoyl(3-OH,4-OMe)}-YDHQ-NH2) | 7%
Benzoic acid-YDHQ-NH2 | 1%
Z-YDHQ-NH2 (Cbz-YDHQ-NH2) | 13%
Ac-YDHQLys(Z)-NH2 (Ac-YDHQK(Cbz)-NH2; SMILES CC(=O)N[C@@H](Cc1ccc(O)cc1)C(=O)N[C@@H](CC(=O)O)C(=O)N[C@@H](Cc1c[nH]cn1)C(=O)N[C@@H](CCC(N)=O)C(=O)N[C@@H](CCCCNC(=O)OCc1ccccc1)C(N)=O) | 2%
Ac-YEPF-NH2 | 13%
Ac-YERP-NH2 | 0%
3-OH—4MeO-Benzoid acid-YDHF-NH2 ({Benzoyl(3-OH,4-OMe)}-YDHF-NH2) | 81%
Benzoic acid-YDHF-NH2 | 0%
Ac-YARF-NH2 | 17%

More lines, now with the values ahead:

% Inhibition of Gadd45β-MKK7 binding | Compound
38% | 2CI-Z-YERF-NH2 (ClZ-YERF-NH2)
28% | Ac-YERA-NH2
37% | Myr-YERF-NH2 (Myristoyl-YERF-NH2)
13% | Ac-YPRF-NH2
13% | Ac-YEAF-NH2
28% | Myr-YDHQ-NH2 (Myristoyl-YDHQ-NH2)
40% | 2CI-Z-YDHQ-NH2 (ClZ-YDHQ-NH2)
84% | Z-YD(OMe)HF-NH2 (Cbz-YD(OMe′)HF-NH2)
23% | Ac-YEHF-NH2
58% | Fmoc-YDHF-NH2
19% | Ac-YDRF-NH2
7% | Ac-AERF-NH2

Same assay, conditions: Table V, FIG. 3C; read-out: IC50 ELISA

IC50 | Compound
> 5 nM | CC(=O)N[C@H](CC1CCCCC1)C(=O)N[C@H](CCCNC(=N)N)C(=O)N[C@H](Cc1ccccc1)C(N)=O [Compound 20, Ac-Cha-Arg-Phe-NH2]
> 10 nM | NC(=O)CC[C@@H](NC(=O)[C@@H](Cc1c[nH]cn1)NC(=O)[C@@H](CC(=O)O)NC(=O)[C@@H](Cc1ccc(O)cc1)NC(=O)OCc1ccccc1)C(N)=O [Compound 32, Z-Tyr-Asp-His-Gln-NH2] (Cbz-[dY][dD][dH][dQ]-NH2)
> 10 nM | NC(=O)CC[C@@H](NC(=O)[C@@H](Cc1c[nH]cn1)NC(=O)[C@@H](CC(=O)O)NC(=O)[C@@H](Cc1ccc(O)cc1)NC(=O)[C@@H](Cc1ccc(O)cc1)NC(=O)OCc1ccccc1)C(N)=O [Compound 33, Z-Tyr-Tyr-Asp-His Gln-NH2] (Cbz-[dY][dY][dD][dH][dQ]-NH2)

Same assay, conditions: Table VI; compounds 0.01-100 nM; read-out: IC50 Elisa

IC50 | Compound
> 100 nM | CC(=O)NC(Cc1ccccc1)C(=O)NC(CCCNC(=N)N)C(=O)NC(Cc1ccc(O)cc1)C(N)=O (stereo not drawn) [Compound O1, Ac-FRY-NH2] (Ac-Phe-Arg-Tyr-NH2; configuration not given here)
> 100 nM | CC(=O)NC(Cc1ccc(O)cc1)C(=O)NC(Cc1ccccc1)C(N)=O (stereo not drawn) [Compound A1, Ac-YF-NH2] (Ac-Tyr-Phe-NH2; configuration not given here)

Same assay, conditions: read-out: IC50s in vitro

IC50 | Compound
0.1 nM | N=C(N)NCCC[C@@H](NC(=O)[C@@H](Cc1ccc(O)cc1)NC(=O)OCc1ccccc1)C(=O)N[C@H](Cc1ccccc1)C(N)=O [Compound 19, Z-Tyr-Arg-Phe-NH2] (Cbz-[dY]-[dR]-[dF]-NH2)

Same assay, conditions: result in words

inhibition of Gadd45β/MKK7 complex formation in ELISA competition assays | Compound
IC50s similar to those of DTPs | Ac-YDHF-NH2
inactive | CC(=O)N[C@H](CC1CCCCC1)C(=O)N[C@H](CCCNC(=N)N)C(=O)N[C@H](Cc1ccccc1)C(N)=O [Compound 20, Ac-Cha-Arg-Phe-NH2]
